Assay results from publication PMC10687025, “Endosomal Arl4A attenuates EGFR degradation by binding to the ESCRT-II component VPS36” (Nature Communications, 2023).

Assays:
Experiment in all cases: pull-down; 2 μg GST fusion protein on glutathione beads with 2 μg His-tagged Arl4A in 1 ml binding buffer (20 mM Tris-HCl pH 8.0, 150 mM NaCl, 5 mM MgCl2, 1 mM EDTA, 1 mM DTT, 10% glycerol, 1% Triton X-100), 1 h at 4 °C; anti-His blot
Conditions in all cases: both partners purified
His-tagged Arl4A WT = target: T1, His-tagged Arl4A WT (UniProt P40617 1-200)
T1 construct: Arl4A, wild type; also called His-Arl4A; source: recombinant, purified (Ni-NTA resin)
T1 sequence (looked up): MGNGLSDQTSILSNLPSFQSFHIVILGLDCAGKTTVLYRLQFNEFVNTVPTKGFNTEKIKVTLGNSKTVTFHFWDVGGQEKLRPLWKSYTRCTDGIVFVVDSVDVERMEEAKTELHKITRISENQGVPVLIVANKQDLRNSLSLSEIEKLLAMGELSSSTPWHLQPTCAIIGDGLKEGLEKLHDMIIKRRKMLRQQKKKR

His-tagged Arl4A Q79L = target: T2, His-tagged Arl4A Q79L (UniProt P40617 1-200, Q79L)
T2 construct: Arl4A, mutant Q79L; source: recombinant, purified (Ni-NTA resin)
T2 sequence (looked up): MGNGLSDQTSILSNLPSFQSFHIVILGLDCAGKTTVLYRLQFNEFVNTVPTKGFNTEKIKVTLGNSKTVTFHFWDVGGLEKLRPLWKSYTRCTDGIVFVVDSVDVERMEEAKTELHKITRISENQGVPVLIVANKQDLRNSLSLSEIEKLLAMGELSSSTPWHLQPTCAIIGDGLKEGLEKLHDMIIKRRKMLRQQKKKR

His-tagged Arl4A T51N = target: T3, His-tagged Arl4A T51N (UniProt P40617 1-200, T51N)
T3 construct: Arl4A, mutant T51N; also called His-Arl4A T51N; source: recombinant, purified (Ni-NTA resin)
T3 sequence (looked up): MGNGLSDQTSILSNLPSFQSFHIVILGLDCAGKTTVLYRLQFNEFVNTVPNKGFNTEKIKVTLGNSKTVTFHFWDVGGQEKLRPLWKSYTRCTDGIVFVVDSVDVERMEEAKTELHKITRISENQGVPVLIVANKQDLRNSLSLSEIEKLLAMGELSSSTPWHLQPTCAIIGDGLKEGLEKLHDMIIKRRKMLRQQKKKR

Measured: binding result

B1: GST-VPS36 (201–386) (domain or fragment, UniProt Q86VN1 201-386, looked up)
chain: KIKDKQGDITEDETIRFKSYLLSMGIANPVTRETYGSGTQYHMQLAKQLAGILQVPLEERGGIMSLTEVYCLVNRARGMELLSPEDLVNACKMLEALKLPLRLRVFDSGVMVIELQSHKEEEMVASALETVSEKGSLTSEEFAKLVGMSVLLAKERLLLAEKMGHLCRDDSVEGLRFYPNLFMTQS
notes: source: E. coli BL21, purified on glutathione Sepharose 4B beads
binds: all assays above
